Experiments:
[1] = target: Siglec-9-Fc (R&D Systems, catalog number 1139-SL-050) (human) (UniProt Q9Y336); assay: blocking assay by flow cytometry on U937 cells (sialic acid ligands); same table: S9-Fc alone 156, secondary alone 37.6; panel headed 'Isotype does not block'
[2] = target: human Siglec-9 expressed on human cells (human) (UniProt Q9Y336); assay: cell-based or functional assay
[3] = target: human Siglec-9 expressed on human cells (human) (UniProt Q9Y336); assay: flow cytometry on human primary monocytes, isotype control, PE secondary
[4] = target: human Siglec-9 expressed on human cells (human) (UniProt Q9Y336); assay: flow cytometry on human primary macrophages, isotype control, PE secondary
[5] = target: human Siglec-9 expressed on human cells (human) (UniProt Q9Y336); assay: flow cytometry on human primary dendritic cells, isotype control, PE secondary
[6] = target: human Siglec-9 expressed on human cells (human) (UniProt Q9Y336); assay: flow cytometry on human primary monocytes, PE-conjugated secondary antibody only (no primary), background control
[7] = target: human Siglec-9 expressed on human cells (human) (UniProt Q9Y336); assay: flow cytometry on human primary macrophages, PE-conjugated secondary antibody only (no primary), background control
[8] = target: human Siglec-9 expressed on human cells (human) (UniProt Q9Y336); assay: flow cytometry on human primary dendritic cells, PE-conjugated secondary antibody only (no primary), background control

Sequence of human Siglec-9 expressed on human cells (human) (Q9Y336 18-463): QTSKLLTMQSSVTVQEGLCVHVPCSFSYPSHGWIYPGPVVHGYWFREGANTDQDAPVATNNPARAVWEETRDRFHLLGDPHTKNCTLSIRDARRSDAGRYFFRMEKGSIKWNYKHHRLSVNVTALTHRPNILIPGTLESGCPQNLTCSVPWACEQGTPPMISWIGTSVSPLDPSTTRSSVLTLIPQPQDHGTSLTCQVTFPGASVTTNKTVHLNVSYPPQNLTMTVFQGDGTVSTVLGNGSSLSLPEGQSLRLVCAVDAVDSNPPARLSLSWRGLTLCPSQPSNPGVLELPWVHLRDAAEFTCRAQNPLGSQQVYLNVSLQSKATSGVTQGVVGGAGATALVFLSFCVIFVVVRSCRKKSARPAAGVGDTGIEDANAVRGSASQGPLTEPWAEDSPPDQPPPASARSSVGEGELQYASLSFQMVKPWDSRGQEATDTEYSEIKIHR
Sequence of Siglec-9-Fc (R&D Systems, catalog number 1139-SL-050) (human) (Q9Y336 18-348 limits assumed): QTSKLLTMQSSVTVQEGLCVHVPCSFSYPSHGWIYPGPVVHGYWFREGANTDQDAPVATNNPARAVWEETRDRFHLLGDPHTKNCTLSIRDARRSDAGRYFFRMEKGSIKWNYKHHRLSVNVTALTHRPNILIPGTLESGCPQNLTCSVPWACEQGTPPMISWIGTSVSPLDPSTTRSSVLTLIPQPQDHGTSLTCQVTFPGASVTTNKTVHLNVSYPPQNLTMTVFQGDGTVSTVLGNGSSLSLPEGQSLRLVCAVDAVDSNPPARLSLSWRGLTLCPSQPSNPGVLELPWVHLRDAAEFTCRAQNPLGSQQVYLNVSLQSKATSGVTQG

Mean : PE-A (Siglec-9-Fc bound to U937 cells in the presence of the mAb) [1] | Percent Siglec-9 Surface Expression, DCs (% Siglec-9) [2] [%] | Percent Siglec-9 Surface Expression, Macrophages (% Siglec-9) [2] [%] | Percent Siglec-9 Surface Expression, Microglia (% Siglec-9) [2] [%] | Percent Siglec-9 Surface Expression, Monocytes (% Siglec-9) [2] [%] | Percent Siglec-9 Surface Expression, THP-1 cells (% Siglec-9) [2] [%] | % Positive [3] [%] | MFI [3] | % Positive [4] [%] | MFI [4] | % Positive [5] [%] | MFI [5] | % Positive [6] [%] | MFI [6] | % Positive [7] [%] | MFI [7] | % Positive [8] [%] | MFI [8] | Substance
203 | – | – | – | – | – | – | – | – | – | – | – | – | – | – | – | – | – | Isotype (antibody)
– | 98.6 | 97.8 | 91.2 | 101 | 95.9 | 3.5 | 127 | 22.6 | 164 | 8.45 | 121 | – | – | – | – | – | – | mIgG2a isotype control antibody
– | – | – | – | – | – | – | – | – | – | – | – | 2.6 | 105 | 3.58 | 153 | 7.05 | 90.1 | PE-conjugated secondary antibody
– | 96.5 | 99.3 | 90.3 | 100 | 100 | 2.6 | 104 | 3.01 | 115 | 12.3 | 132 | – | – | – | – | – | – | mIgG1 isotype control antibody
– | 93.4 | 97.2 | 91.7 | 98.9 | 98 | 4 | 145 | 12.6 | 180 | 26.4 | 319 | – | – | – | – | – | – | mIgG2b isotype control antibody

— patent publication US20190062427A1
